This passage reports Kd results from publication PMC9381478, “A context-dependent and disordered ubiquitin-binding motif” (Cellular and Molecular Life Sciences: CMLS, 2022).

Read-outs that look alike come from different tables or passages of the source.

Assay [1] concerns the target S. pombe ubiquitin with an N-terminal 6xhistidine-tag, TEV-cleavage site and an N-terminal free cysteine (S. pombe) (UniProt P0CG72). The assay is described as follows: NMR titration; 100 µM 15N-ubiquitin, unlabelled peptide or protein added or titrated (peptides to 1 mM, WT Dss1 peptide to 5 mM); 20 mM NaH2PO4, 150 mM NaCl, 5 mM TCEP, pH 7.5; CSPs of 1H-15N-HSQC, global fit to a one-site model.

For assay [2], the target named is SUMO (Homo sapiens) (UniProt P63165). To be noted: cited from earlier work.
Chain of SUMO (Homo sapiens) (P63165 2-97): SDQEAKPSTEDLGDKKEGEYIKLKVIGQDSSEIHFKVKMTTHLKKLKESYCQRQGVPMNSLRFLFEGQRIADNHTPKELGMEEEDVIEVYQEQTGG
The target is the same in assay [3]. To be noted: cited from earlier work. The source holds these as a separate data set.
The target in assay [4] is ubiquitin (UniProt P0CG48). As to conditions: cited from earlier work.
Assay [5] concerns the target ubiquitin (UniProt P0CG48). To be noted: cited from earlier work. The source holds these as a separate data set.

Chain of RABEX5 UIM (Q9UJ41 48-74): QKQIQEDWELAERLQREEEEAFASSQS
Chain of Vps27 UIM (P40343 258-277): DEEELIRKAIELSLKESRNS

What is called Kd is a measure of binding affinity in units of concentration. With “Dss1 DMD (from UniProt O14140 1-71) (natural protein)”, in assay [1], the equilibrium dissociation constant (Kd) stood at 25 µM. The substance “Dss1 DWD (from UniProt O14140 1-71) (natural protein)” yielded an equilibrium dissociation constant (Kd) in assay [1] of 300 µM. In the case of PIASX (from UniProt O75928), the dissociation constant (Kd) in the assay with SUMO (Homo sapiens) [2] was 1 µM. With PML-P (from UniProt P29590), the Kd with SUMO (Homo sapiens) [3] was 100 µM. RABEX5 UIM (from UniProt Q9UJ41): in the assay with ubiquitin [4], the dissociation constant Kd is 100 µM. With “Spd1 peptide (15-mer with the DisUBM of S. pombe Spd1)”, in assay [1], the dissociation constant Kd amounted to 3100 µM. Vps27 UIM (from UniProt P40343): in the assay with ubiquitin [5], the Kd is 20 µM.
